Assay results taken from the RNAGym collection of RNA variant scans (doi:10.7554/elife.90254).

B1: LINE1-mini (parent)
chain: GGCAGAGCUCAACACAGCGUGGCAAAGUGGCUGUGGCUAGACUGCC

Variants of: B1
Experiment: self-cleavage, relative activity (ratio to wild type); higher = more cleavage; in vitro, sequencing; the parent is a self-cleaving ribozyme

Variant | self-cleavage
GGCAUGGCUCAACACAGCGUGGCAAAGUGGCUGUGGCUAGACUGCC [G5U A6G] | 0.07
GGCAGAGCUCAAUACAGCGUGGCAAAGAGGCUGUGGCUAGACUGCC [C13U U28A] | 0.49
GGCAGAACUUAACACAGCGUGGCAAAGUGGCUGUGGCUAGACUGCC [G7A C10U] | 0.04
GGCAGAGCUCAACACAGCGUGCCAAAGUGGCUGUGGCUAGACCGCC [G22C U43C] | 0.06
GGCAGAGCUCAAAACAGCGUGACAAAGUGGCUGUGGCUAGACUGCC [C13A G22A] | 0.15
GGCCGAGCUCAAUACAGCGUGGCAAAGUGGCUGUGGCUAGACUGCC [A4C C13U] | 0.35
GGCAGAGCUGAACACAGCGUGGAAAAGUGGCUGUGGCUAGACUGCC [C10G C23A] | 0.08
GGCCGAGCUCAACACAGCGUGGCAAAGUGGAUGUGGCUAGACUGCC [A4C C31A] | 0.14
GGCAGAGCUCAACACUGCGUUGCAAAGUGGCUGUGGCUAGACUGCC [A16U G21U] | 0.19
GGCAGAGCUCAACACACCGUGGCAGAGUGGCUGUGGCUAGACUGCC [G17C A25G] | 0.18
GGCAGAGCUCAACCCAGCGUGGCAAAGUGGCUGUGGCCAGACUGCC [A14C U38C] | 0.07
GGCAGAUCUCAACACAGCGUGGCAAAUUGGCUGUGGCUAGACUGCC [G7U G27U] | 0.08
GGCAGAGCUCUACCCAGCGUGGCAAAGUGGCUGUGGCUAGACUGCC [A11U A14C] | 0.01
GGCAGAGCUCAACACAGCGUGGCAAAGGGGCUGUGGCUAGACUCCC [U28G G44C] | 0.54
AGCAGAGCUCAACACAGCGUGGCACAGUGGCUGUGGCUAGACUGCC [G1A A25C] | 1.36
GGCAGAGCUCAACACAGCGUGGCAAAGUAGCCGUGGCUAGACUGCC [G29A U32C] | 0.18
GGGAGAGCUCAACACAGCGUGCCAAAGUGGCUGUGGCUAGACUGCC [C3G G22C] | 0.26
GGCAGAGCUCAAUACAGCGUGGCAAAGUGGCGGUGGCUAGACUGCC [C13U U32G] | 0.21
GGCAGAGCUCAACACAGCGUGGCAAAUUGGCUGUGGCUAGAUUGCC [G27U C42U] | 0.2

Variant | self-cleavage
GGCGGAGCUCAACACAGCGUGGCAAAGUGGCUGUGGCUAGACUGUC [A4G C45U] | 0.6
GGCAGAGCUCAGCACAGCGUGGCAAAGUGGCUGUGGCUAGCCUGCC [A12G A41C] | 0.02
GGCAGAGCUCAACGCAGCGUGGCGAAGUGGCUGUGGCUAGACUGCC [A14G A24G] | 0.76
GGCAGAGCUCAACACCGCGUCGCAAAGUGGCUGUGGCUAGACUGCC [A16C G21C] | 0.22
GUCAGAGCUCAACACAGCGUGGCAAAGUGGCUGUGGCUAGAUUGCC [G2U C42U] | 0.1
GGCAGAGCUCUACACAGCGUGGCAAAGUGGCUGUCGCUAGACUGCC [A11U G35C] | 0.01
GGCACAGCUCAACACAGCGUGGCAAAGUGGCUGUAGCUAGACUGCC [G5C G35A] | 0.1
GGCAGCGCUCAACACAGCGUGGCAAAGUGGCUGUGGCUAGAGUGCC [A6C C42G] | 0.02
GCCAGAGCUCAACACAGCGUGGCAAAGUGGCUGUUGCUAGACUGCC [G2C G35U] | 0.23
GGCAGAGCACUACACAGCGUGGCAAAGUGGCUGUGGCUAGACUGCC [U9A A11U] | 0.03
GGCAGAGCUCAACACAGCGUGGCAAAGUGGCUGUGGCGAGACGGCC [U38G U43G] | 0.02
GGCAGAGCUCGACACAGCGUGGCAAAGUGGCUGGGGCUAGACUGCC [A11G U34G] | 0.03
GGCAGAGCUCAACACAGCGUGGCAAAGUGGCUGUGGCUAGGCUGCC [A41G] | 0.34
GGCAGAGCUCAACACAUCGUGGCAAAGUGGCUGUGGAUAGACUGCC [G17U C37A] | 0.1
GGCACAGCUCAACACAGCGUGGCAAAGUGGCUGUGGCUAGGCUGCC [G5C A41G] | 0.07
GGCAGAGCUCAACACAGCGUGGCAAAGUGGCUAUCGCUAGACUGCC [G33A G35C] | 0.05
GGCAGAGCUCAACACCGCGUGGCAAAGUGGCUGUGGCUGGACUGCC [A16C A39G] | 0.04
GGCAGACCUCAACACAGCGUGGCGAAGUGGCUGUGGCUAGACUGCC [G7C A24G] | 0.12
GGCAGAGCUCAACACAGCGUGGCAAAGUGGCUGUGAUUAGACUGCC [G36A C37U] | 0.31

Variant | self-cleavage
GGCAGAGCUCAACACAGCGUGGCAAAGUGGCUGUAGCUAGACUGCA [G35A C46A] | 0.11
GGCAGAGCUCGACACAGCGUGGCAAAGUGGCUGUGGCUAGACUGCA [A11G C46A] | 0.04
GGCAGAGCUAAACACAGCGUGGCAAAGUGGCUGGGGCUAGACUGCC [C10A U34G] | 0.04
GGCAGAGCUCAACACAGCGUGGCAAAGGGGCUGUGGAUAGACUGCC [U28G C37A] | 0.03
GUCAGAGCUCAACGCAGCGUGGCAAAGUGGCUGUGGCUAGACUGCC [G2U A14G] | 0.08
GUCAGAGUUCAACACAGCGUGGCAAAGUGGCUGUGGCUAGACUGCC [G2U C8U] | 0.1
GGCAGAGCUCAACACAGCGUGGCAAAGUGCCUGUGGCUAGACUGGC [G30C C45G] | 0.21
GGCAGAGCUCAACACAGCGUGGCAAAGUGGCUGUGGGUAGUCUGCC [C37G A41U] | 0.03
GGCAGAUCUCAACACAGCGUGGCAAAGUGGCUAUGGCUAGACUGCC [G7U G33A] | 0.13
GGCAGAGCUCAACACAGCGUGGCAAGGAGGCUGUGGCUAGACUGCC [A26G U28A] | 1.25
GGCAGAGGUCAACACAGCGUGGCGAAGUGGCUGUGGCUAGACUGCC [C8G A24G] | 0.15
GGCAGUGCACAACACAGCGUGGCAAAGUGGCUGUGGCUAGACUGCC [A6U U9A] | 0.17
GGCAGAGCUCAACACAGCGUGGCAAAGUGGCAGUGGCUACACUGCC [U32A G40C] | 0.08
GGCACAGCUCAACACAGCGUGGCAAAGUGACUGUGGCUAGACUGCC [G5C G30A] | 0.02
GGCAGAGCUCAACACAGCGUGGCCAACUGGCUGUGGCUAGACUGCC [A24C G27C] | 0.77
GGCAGAGCUCAACACAGCAUGGCAAAGAGGCUGUGGCUAGACUGCC [G19A U28A] | 1.57
GGCAAAGCUCAACACAGCGUGGUAAAGUGGCUGUGGCUAGACUGCC [G5A C23U] | 0.14
GGCAGAGCUCAACCCAGCGUGGCAAAGUGGCUGUCGCUAGACUGCC [A14C G35C] | 0.04
